Four molecules from patent publication US20250154237A1 (A AND G PHARMACEUTICAL, published 2025) can be followed below.

Sequences and labels used below:
T1: human recombinant his-tagged full-length progranulin (human, UniProt P28799 18-593)
T1 construct: mature; also called huPGRN; hu PGRN; not shown: his tag
T1 sequence (looked up): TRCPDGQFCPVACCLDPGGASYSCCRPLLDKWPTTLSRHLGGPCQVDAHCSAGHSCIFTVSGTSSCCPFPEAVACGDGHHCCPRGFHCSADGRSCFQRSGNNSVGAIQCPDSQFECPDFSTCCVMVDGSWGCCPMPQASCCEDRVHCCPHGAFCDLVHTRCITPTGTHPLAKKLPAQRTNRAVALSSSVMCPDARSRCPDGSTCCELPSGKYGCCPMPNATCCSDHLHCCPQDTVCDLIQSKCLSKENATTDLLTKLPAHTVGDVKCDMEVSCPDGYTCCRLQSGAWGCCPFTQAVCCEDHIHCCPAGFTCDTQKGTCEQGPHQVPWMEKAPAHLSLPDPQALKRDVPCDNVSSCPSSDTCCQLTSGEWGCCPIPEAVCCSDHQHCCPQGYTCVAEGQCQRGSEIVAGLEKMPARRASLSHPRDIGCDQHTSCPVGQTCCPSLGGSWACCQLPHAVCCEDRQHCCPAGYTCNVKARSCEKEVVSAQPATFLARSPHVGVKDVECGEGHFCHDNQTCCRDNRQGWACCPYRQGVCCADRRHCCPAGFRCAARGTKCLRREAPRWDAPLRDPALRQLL

B1: 10B3 (antibody, V domains shown)
VH: QVQLVESGGGVVQPGRSLRLSCAASGFTLSGYGMHWVRQAPDKGLEWVAVIWYDGSDKNYADSVKGRFTISRDNSKNTLYLQMNSLRAEDTAVYYCARDRGAVAGDYWGQGTLVTVSS
VL: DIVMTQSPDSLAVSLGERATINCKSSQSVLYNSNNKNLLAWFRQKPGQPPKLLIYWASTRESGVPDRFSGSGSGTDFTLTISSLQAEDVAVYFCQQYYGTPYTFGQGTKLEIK
notes: Fully human mAb from TC-mAb mouse hybridoma; also called mAb 10B3
B2: 16C11 (antibody, V domains shown)
VH: QVQLVESGGGVVQPGRSLRLSCAASGFTFSSYAMHWVRQAPGKGLEWVAVIWYDGSKKYNADSVKGRFTISRDNSKNTLYLQMNSLRAEDTAVYYCARDRGIGGDYWGQGTLVTVSS
VL: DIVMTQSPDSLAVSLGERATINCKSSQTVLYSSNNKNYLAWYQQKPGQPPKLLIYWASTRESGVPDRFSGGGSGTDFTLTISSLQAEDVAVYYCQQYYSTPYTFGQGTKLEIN
notes: Fully human mAb from TC-mAb mouse hybridoma; also called mAb 16C11
B3: 14A6 (antibody, V domains shown)
VH: QVQLVESGGGVVQPGRSLRLSCAASGFTFSNYGMHWVRQAPGKGLEWVAVIWYDGSNKYYADSVKGRFTISRDNSKNTLYLQMNSLRAEDTAVYYCARGHSVSGGDYWGQGTLVTVSS
VL: DIQMTQSPSSLSASVGDRVTITCRASQSVNSFLNWYQQTPGKAPKLLIYAASSLQSGVPPRFSGSGSGTDFTLTISSLQPEDFATYYCQQSYSTPYTFGQGTKLEIN
notes: Fully human mAb from TC-mAb mouse hybridoma; also called mAb 14A6
B4: 10C8 (antibody, V domains shown)
VH: QVQLVQSGAEVKKPGASVKVSCKASGYTLTSYGISWVRQAPGQGLEWMGWISAYNGNTNYAQKLQGRVTMTTDTSTSTAYMELRSLRSDDTAVYYCARELLWFGELLSQYYYYGMDVWGQGTTVTVSS
VL: DIQMTQSPSTLSASVGDRVTITCRASQNISRWLAWYQQKPGKAPKLLIFRASSLETGVPSRFGGSGSGTEFTLTISSLQPDDFATYYCQQYNSYYTFGQGTRLEIK
notes: Fully human mAb from TC-mAb mouse hybridoma; also called mAb 10C8

The first test concerns the target T1, human recombinant his-tagged …. Briefly: BLI OctetRed96, mAb captured on AHC sensors, huPGRN as analyte, 25 C. Further details: Response: unit not given here. The protocol:
Determination of Binding Affinity by Octet. OctetRed96 BLI technology was used to examine the binding characteristics of selected fully human antibodies to progranulin. The method is briefly described herein. Assays were performed at 25° C. Pre-conditioning of the pre hydrated (1 hr) anti-human Fc capture (AHC) sensors was performed by repeating 3 cycles of dipping sensors in regeneration buffer followed by neutralizing buffer (PBS). Anti-progranulin mAbs were captured at 20 μg/ml for 360 seconds on pre-conditioned biosensors. Sensors were then dipped in baseline buffer similar to the progranulin diluent (PBS). Sensors were then dipped into progranulin-containing wells as indicated for 420 seconds. The dissociation step was carried out in assay buffer (PBS) for 600 seconds. The KD was determined based on Kₒₙ and Koff using the experimental conditions described above.
As to B1, the Kd turned out to be 0.136 nM, the Response was determined as 0.797, the koff stood at 1.19e-05 s⁻¹ and the kon worked out at 86800 M⁻¹ s⁻¹.
Regarding B2, the Kd worked out at 0.476 nM, the Response came out at 0.932, the koff worked out at 7.21e-05 s⁻¹ and the kon was found to be 152000 M⁻¹ s⁻¹.
On to B3, for which the Kd was determined as 0.587 nM, the Response was determined as 0.64, the koff worked out at 2.95e-05 s⁻¹ and the kon was determined as 50300 M⁻¹ s⁻¹.
The like results for B4 were, in that order, 0.00413 nM, 0.89, 5.38e-07 s⁻¹ and 130000 M⁻¹ s⁻¹.

The target is the same in a further test. Briefly: flow cytometry: progranulin binding to MDA-MB-231 cells with the antibody, % of hIgG control. The protocol:
Progranulin Binding by Flow Cytometry. Binding assays were carried out on an […] Flow Cytometer using the instructions included therein. […] Out of the 45 mAbs assayed, 11 clones (shown in bold in Table 5) produced antibodies that were able to inhibit progranulin binding in a dose dependent fashion.
On to B1, for which the “% Control” value is 62%.
On to B2, for which the “% Control” value amounted to 60%.
Turning to B3, the “% Control” value turned out to be 116%.
B4: the “% Control” value was found to be 55%.
